Reference: PMC5777889

Assays:
Test in all cases: EMSA
Conditions in all cases: buffer, room temperature
HapR (Vibrio cholerae) = system: HapR (Vibrio cholerae)
H-NS (Vibrio cholerae) = system: H-NS (Vibrio cholerae)
LeuO (Vibrio cholerae) = system: LeuO (Vibrio cholerae)

| Substance | Kd (HapR (Vibrio cholerae)) [µM] | Kd (H-NS (Vibrio cholerae)) [µM] | Kd (LeuO (Vibrio cholerae)) [µM] |
| --- | --- | --- | --- |
| vieSAB promoter -198 to +70 | 0.174 | – | – |
| vieSAB promoter, El Tor biotype (EMSA) | – | 0.0523 | 0.0312 |
| vieSAB promoter, classical biotype (EMSA) | – | 0.0441 | 0.0312 |
